This is an account of results in publication PMC5727500, “Paper-based MoS2 nanosheet-mediated FRET aptasensor for rapid malaria diagnosis”.

The series concerns the target Plasmodium lactate dehydrogenase (pLDH) (Plasmodium falciparum, UniProt Q27743 1-316). Kind of series: FRET fluorescence recovery from MoS2 nanosheets on printer paper; 1 uM pLDH; 100 nM aptamer, 25 ug/mL MoS2 dried on printer paper; no recovery on lens, coffee filter, Whatman or Advantec paper; Aptamer buffer 20 mM Tris-HCl pH 8, 50 mM NaCl, 5 mM KCl, 5 mM MgCl2; pLDH in water, other proteins in 1x PBS; readings over 30 min; temperature not stated. Particulars: protein: recombinant; chain copies: 4; label: 3' FAM.

Sequence of Plasmodium lactate dehydrogenase (pLDH) (Q27743 whole entry): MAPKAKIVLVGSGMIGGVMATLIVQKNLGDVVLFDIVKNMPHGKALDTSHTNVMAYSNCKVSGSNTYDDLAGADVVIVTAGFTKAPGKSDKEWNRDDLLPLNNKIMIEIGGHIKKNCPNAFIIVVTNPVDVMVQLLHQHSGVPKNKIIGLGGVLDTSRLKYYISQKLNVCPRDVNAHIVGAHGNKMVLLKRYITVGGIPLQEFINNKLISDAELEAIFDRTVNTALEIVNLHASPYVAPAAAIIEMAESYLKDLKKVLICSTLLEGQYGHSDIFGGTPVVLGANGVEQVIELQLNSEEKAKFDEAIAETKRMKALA

Take GTTCGATTGGATTGTGCCGGAAGTGCTGGCTCGAAC (ssDNA) [pLDH aptamer]: the binding result was “binds”.
